Laboratory results reported in patent publication US20070161569A1 (GENERAL HOSPITAL, published 2007).
“And” between values parts separate entries of the source, which are not always exact repeats. Identical values can stand only once. Non-standard residues stand in square brackets, D forms with d. No end group written: not given here. hArg = N=C(N)NCCCC[C@H](N)C(=O)O; Ac5c = NC1(C(=O)O)CCCC1; Deg = CCC(N)(CC)C(=O)O; Ac3c = NC1(C(=O)O)CC1; Aib = CC(C)(N)C(=O)O

Legend:
[1] = molecular target: T1, recombinant P1R chimera expressed in HKRK-B28 cells (opossum P1R from the N-terminus to the mid region of … (opossum; rat, UniProt P25107 27-288; P25961 295-591, limits assumed); assay: cell-based or functional assay
T1 sequence (P25107 other isoform, or with tags, fused parts or gaps limits assumed): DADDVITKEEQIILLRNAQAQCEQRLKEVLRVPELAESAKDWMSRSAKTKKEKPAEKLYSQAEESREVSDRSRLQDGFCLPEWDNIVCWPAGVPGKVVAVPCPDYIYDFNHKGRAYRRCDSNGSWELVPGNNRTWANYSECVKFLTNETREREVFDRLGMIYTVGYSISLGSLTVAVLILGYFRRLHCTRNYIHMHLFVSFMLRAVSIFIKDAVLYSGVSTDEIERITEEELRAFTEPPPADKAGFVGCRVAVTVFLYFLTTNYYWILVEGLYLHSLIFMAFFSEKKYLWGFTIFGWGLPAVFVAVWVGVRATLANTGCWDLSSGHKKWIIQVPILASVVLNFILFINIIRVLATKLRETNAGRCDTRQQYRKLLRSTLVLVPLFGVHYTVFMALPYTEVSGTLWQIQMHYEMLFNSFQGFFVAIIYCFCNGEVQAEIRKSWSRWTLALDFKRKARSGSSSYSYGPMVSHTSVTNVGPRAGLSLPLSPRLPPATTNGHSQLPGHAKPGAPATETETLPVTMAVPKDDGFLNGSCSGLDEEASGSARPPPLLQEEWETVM

[2] = molecular target: T2, P1R-delNt, a recombinant human PTH-1 receptor construct in which most of the amino-terminal extracellular … (human, UniProt Q03431 23-593, limits assumed); assay: cell-based or functional assay
T2 sequence (looked up): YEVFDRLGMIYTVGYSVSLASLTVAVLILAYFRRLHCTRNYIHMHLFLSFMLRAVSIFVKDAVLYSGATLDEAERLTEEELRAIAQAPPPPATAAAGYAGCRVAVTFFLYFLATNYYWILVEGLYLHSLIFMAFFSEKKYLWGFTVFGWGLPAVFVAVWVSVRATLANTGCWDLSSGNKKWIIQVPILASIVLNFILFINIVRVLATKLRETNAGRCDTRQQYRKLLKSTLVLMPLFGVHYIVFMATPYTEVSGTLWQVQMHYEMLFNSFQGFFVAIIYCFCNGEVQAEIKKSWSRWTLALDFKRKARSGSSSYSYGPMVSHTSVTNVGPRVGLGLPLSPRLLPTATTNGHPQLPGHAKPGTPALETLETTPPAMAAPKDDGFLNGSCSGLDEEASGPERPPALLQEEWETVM

[3] = molecular target: T1, recombinant P1R chimera expressed in …; assay: competition binding on B28 cells against 125I-PTH(1-21) tracer (SEQ ID NO 36)
Method: Competition Binding. Binding reactions were performed with HKRK-B28 cells or in COS-7 cells in 24-well plates. The cells were rinsed with 0.5 mL of binding buffer, and then treated successively with 100 μL binding buffer, 100 μL of binding buffer containing various amounts of unlabeled competitor ligand, and 100 μL of binding buffer containing ca. 100,000 cpm of ¹²⁵I-[Aib^{1,3},Nle⁸,Gln¹⁰,Har¹¹,Ala¹²,Trp¹⁴,Arg¹⁹,Tyr²¹]rPTH(1-21) (SEQ. ID. NO. 36) (ca. 26 fmol; final volume=300 μL). Incubations were 4 to 6 h at 4° C., at which time near equilibrium conditions were attained. Cells were then placed on ice, the binding medium was removed, and the monolayer was rinsed three times with 0.5 mL of cold binding buffer. The cells were subsequently lysed with 0.5 mL 5N NaOH and counted for radioactivity. For each tracer and in each experiment, the non-specific binding was determined as the radioactivity that bound in the presence of the same unlabeled peptide at a concentration of 1 μM, and was ˜1% of total radioactivity added for each tracer. The maximum specific binding (B₀) was the total radioactivity bound in the absence of competing ligand, corrected for nonspecific binding, and for each tracer, ranged from 8% to 20% of the total radioactivity added. Nonlinear regression was used to calculate binding IC₅₀ values (see below). Scatchard transformations of homologous competition binding data derived from studies with 26 fmol of ¹²⁵I-[Aib^{1,3},Nle⁸,Gln¹⁰,Har¹¹,Ala¹²,Trp¹⁴, Arg¹⁹,Tyr²¹]rPTH(1-21) (SEQ. ID. NO. 36) were employed for estimations of apparent equilibrium dissociation constant (kDapps) and total number of ligand binding sites (Bₘₐₓ), assuming a single class of binding sites and equal affinities of the iodinated and non iodinated ligand.

B1: [Ac5c^1,Aib^3,Gln^10]PTH(1-10)NH2 (peptide)
peptide: [Ac5c]V[Aib]EIQLMHQ-NH2
modifications: N-terminus assumed
SMILES: CC[C@H](C)[C@H](NC(=O)[C@H](CCC(=O)O)NC(=O)C(C)(C)NC(=O)[C@@H](NC(=O)C1(N)CCCC1)C(C)C)C(=O)N[C@@H](CCC(N)=O)C(=O)N[C@@H](CC(C)C)C(=O)N[C@@H](CCSC)C(=O)N[C@@H](Cc1c[nH]cn1)C(=O)N[C@@H](CCC(N)=O)C(N)=O
cAMP EC50 in HKRK-B28 cells [1]: ~3000 nM
increase in cAMP levels relative to basal, peptide at 10 µM, HKRK-B28 cells [1]: 33 fold
cAMP EC50 in LdelNt-2 cells [2]: ~40000 nM and 37000 nM

B2: [M]PTH(1-14) analog in which alanine-3 is substituted with α,α-diethylglycine (Deg) (peptide)
peptide: H-AV[Deg]EIQLMHQ[hArg]AKW-NH2
SMILES: CC[C@H](C)[C@H](NC(=O)[C@H](CCC(=O)O)NC(=O)C(CC)(CC)NC(=O)[C@@H](NC(=O)[C@H](C)N)C(C)C)C(=O)N[C@@H](CCC(N)=O)C(=O)N[C@@H](CC(C)C)C(=O)N[C@@H](CCSC)C(=O)N[C@@H](Cc1c[nH]cn1)C(=O)N[C@@H](CCC(N)=O)C(=O)N[C@@H](CCCCNC(=N)N)C(=O)N[C@@H](C)C(=O)N[C@@H](CCCCN)C(=O)N[C@@H](Cc1c[nH]c2ccccc12)C(N)=O
notes: also called Deg^3-containing analog; Deg-3
IC50 [3]: ~3000 nM
fold improved affinity relative to the parent [M]PTH(1-14) [3]: ~1.5 fold
cAMP-stimulating potency, fold diminished against the parent analog [1]: ~10 fold
signaling potency, fold diminished relative to parent [M]PTH(1-14) [1]: ~40 fold

B3: [M]PTH(1-14) analog in which alanine-3 is substituted with 1-aminocyclopentane-1-carboxylic acid (Ac5c) (peptide)
peptide: AV[Ac5c]EIQLMHQ[hArg]AKW-NH2
modifications: N-terminus assumed
SMILES: CC[C@H](C)[C@H](NC(=O)[C@H](CCC(=O)O)NC(=O)C1(NC(=O)[C@@H](NC(=O)[C@H](C)N)C(C)C)CCCC1)C(=O)N[C@@H](CCC(N)=O)C(=O)N[C@@H](CC(C)C)C(=O)N[C@@H](CCSC)C(=O)N[C@@H](Cc1c[nH]cn1)C(=O)N[C@@H](CCC(N)=O)C(=O)N[C@@H](CCCCNC(=N)N)C(=O)N[C@@H](C)C(=O)N[C@@H](CCCCN)C(=O)N[C@@H](Cc1c[nH]c2ccccc12)C(N)=O
notes: also called Ac5c^3-containing analog; Ac5c-3
IC50 [3]: ~3000 nM
cAMP-stimulating potency, fold increase over the parent analog [1]: < 2 fold

B4: [Ac5c^1,M]PTH(1-14) (peptide)
peptide: [Ac5c]VAEIQLMHQ[hArg]AKW-NH2
modifications: N-terminus assumed
SMILES: CC[C@H](C)[C@H](NC(=O)[C@H](CCC(=O)O)NC(=O)[C@H](C)NC(=O)[C@@H](NC(=O)C1(N)CCCC1)C(C)C)C(=O)N[C@@H](CCC(N)=O)C(=O)N[C@@H](CC(C)C)C(=O)N[C@@H](CCSC)C(=O)N[C@@H](Cc1c[nH]cn1)C(=O)N[C@@H](CCC(N)=O)C(=O)N[C@@H](CCCCNC(=N)N)C(=O)N[C@@H](C)C(=O)N[C@@H](CCCCN)C(=O)N[C@@H](Cc1c[nH]c2ccccc12)C(N)=O
notes: also called Ac5c (position 1) analog; Ac5c^1 modification
fold improved affinity relative to the parent [M]PTH(1-14) [3]: 50 fold
cAMP accumulation, fold more potent than the parent analog [1]: 61 fold
cAMP potency, fold improvement relative to parent [M]PTH(1-14) [1]: ~35 fold

B5: [Aib^1,3,Gln^10]PTH(1-10)NH2 (peptide)
peptide: [Aib]V[Aib]EIQLMHQ-NH2
modifications: N-terminus assumed
SMILES: CC[C@H](C)[C@H](NC(=O)[C@H](CCC(=O)O)NC(=O)C(C)(C)NC(=O)[C@@H](NC(=O)C(C)(C)N)C(C)C)C(=O)N[C@@H](CCC(N)=O)C(=O)N[C@@H](CC(C)C)C(=O)N[C@@H](CCSC)C(=O)N[C@@H](Cc1c[nH]cn1)C(=O)N[C@@H](CCC(N)=O)C(N)=O
increase in cAMP accumulation, peptide at 1×10^-4M [1]: 2 fold

B6: [Aib^1,3,Gln^10,Har^11,Ala^12,Trp^14]PTH(1-14)NH2 (peptide)
peptide: [Aib]V[Aib]EIQLMHQ[hArg]AKW-NH2
modifications: N-terminus assumed
SMILES: CC[C@H](C)[C@H](NC(=O)[C@H](CCC(=O)O)NC(=O)C(C)(C)NC(=O)[C@@H](NC(=O)C(C)(C)N)C(C)C)C(=O)N[C@@H](CCC(N)=O)C(=O)N[C@@H](CC(C)C)C(=O)N[C@@H](CCSC)C(=O)N[C@@H](Cc1c[nH]cn1)C(=O)N[C@@H](CCC(N)=O)C(=O)N[C@@H](CCCCNC(=N)N)C(=O)N[C@@H](C)C(=O)N[C@@H](CCCCN)C(=O)N[C@@H](Cc1c[nH]c2ccccc12)C(N)=O
cAMP EC50 in LdelNt-2 cells [2]: 6.4 nM

B7: [Ac3c^1,M]PTH(1-14) (peptide)
peptide: [Ac3c]VAEIQLMHQ[hArg]AKW-NH2
modifications: N-terminus assumed
SMILES: CC[C@H](C)[C@H](NC(=O)[C@H](CCC(=O)O)NC(=O)[C@H](C)NC(=O)[C@@H](NC(=O)C1(N)CC1)C(C)C)C(=O)N[C@@H](CCC(N)=O)C(=O)N[C@@H](CC(C)C)C(=O)N[C@@H](CCSC)C(=O)N[C@@H](Cc1c[nH]cn1)C(=O)N[C@@H](CCC(N)=O)C(=O)N[C@@H](CCCCNC(=N)N)C(=O)N[C@@H](C)C(=O)N[C@@H](CCCCN)C(=O)N[C@@H](Cc1c[nH]c2ccccc12)C(N)=O
cAMP accumulation, fold more potent than the parent analog [1]: ~2 fold

B8: [Deg^1,M]PTH(1-14) (peptide)
peptide: [Deg]VAEIQLMHQ[hArg]AKW-NH2
modifications: N-terminus assumed
SMILES: CC[C@H](C)[C@H](NC(=O)[C@H](CCC(=O)O)NC(=O)[C@H](C)NC(=O)[C@@H](NC(=O)C(N)(CC)CC)C(C)C)C(=O)N[C@@H](CCC(N)=O)C(=O)N[C@@H](CC(C)C)C(=O)N[C@@H](CCSC)C(=O)N[C@@H](Cc1c[nH]cn1)C(=O)N[C@@H](CCC(N)=O)C(=O)N[C@@H](CCCCNC(=N)N)C(=O)N[C@@H](C)C(=O)N[C@@H](CCCCN)C(=O)N[C@@H](Cc1c[nH]c2ccccc12)C(N)=O
cAMP accumulation, fold more potent than the parent analog [1]: 11 fold

B9: [Ac5c^1,Aib^3]PTH(1-9)NH2 (peptide)
peptide: [Ac5c]V[Aib]EIQLMH-NH2
modifications: N-terminus assumed
SMILES: CC[C@H](C)[C@H](NC(=O)[C@H](CCC(=O)O)NC(=O)C(C)(C)NC(=O)[C@@H](NC(=O)C1(N)CCCC1)C(C)C)C(=O)N[C@@H](CCC(N)=O)C(=O)N[C@@H](CC(C)C)C(=O)N[C@@H](CCSC)C(=O)N[C@@H](Cc1c[nH]cn1)C(N)=O
increase in cAMP levels relative to basal, peptide at 1×10^-4M [1]: 6 fold
